Results on five molecules are retold here after US5854042A, “Sugar-chain synthetase and process for producing the same” (The Institute of Physical and Chemical Research, priority 1993, dated 1998).

The target of data set [1] is Asialo-alpha 1 acid glycoprotein.
The target in data set [2] is Bovine submaxillary mucin (bovine).
For data set [3], the target named is alpha 1 acid glycoprotein.
Data set [4] concerns the target Asialo-fetuin (Bos taurus (Bovine)) (UniProt P12763).
Data set [5] has as its target Bovine submaxillary asialo-mucin (bovine).
Data set [6] has as its target Fetuin (Bos taurus (Bovine)) (UniProt P12763).
Data set [7] deals with Asialo-alpha 1 acid glycoprotein. The source holds these as a separate data set.
The target in data set [8] is Bovine submaxillary mucin (bovine). The source holds these as a separate data set.
For data set [9], the target named is alpha 1 acid glycoprotein. The source holds these as a separate data set.
Data set [10] concerns the target Asialo-fetuin (Bos taurus (Bovine)) (UniProt P12763). The source holds these as a separate data set.
Data set [11] has as its target Bovine submaxillary asialo-mucin (bovine). The source holds these as a separate data set.
Data set [12] addresses Fetuin (Bos taurus (Bovine)) (UniProt P12763). This is another data set of the same source.
Substrate in data set [13]: CC(=O)N[C@H]1C(O)O[C@H](CO)[C@@H](O[C@@H]2O[C@H](CO)[C@H](O)[C@H](O)[C@H]2O)[C@@H]1O
As to the kind of experiment: cells, lysate or membranes named. The note with it: other: renatured enzyme after removal of urea by dialysis.

Substrate in data set [14]: CC(=O)N[C@H]1[C@H]([C@H](O)[C@H](O)CO)O[C@](OP(=O)(O)OC[C@H]2O[C@@H](n3ccc(N)nc3=O)[C@H](O)[C@@H]2O)(C(=O)O)C[C@@H]1O
In words: Sialyltransferase assay, kinetic parameters (Km) of the renatured enzyme. It is filed as biochemical, mouse. Conditions: other: renatured enzyme after removal of urea by dialysis; measured with N-acetyllactosamine as the acceptor.

Substrate in data set [15]: CC(=O)N[C@H]1[C@H]([C@H](O)[C@H](O)CO)O[C@](OP(=O)(O)OC[C@H]2O[C@@H](n3ccc(N)nc3=O)[C@H](O)[C@@H]2O)(C(=O)O)C[C@@H]1O
In words: purified protein, by the assay type. Conditions: other: measured with N-acetyllactosamine as the acceptor; pH 6.0; 37.0 °C.

Substrate in data set [16]: CC(=O)N[C@H]1C(O)O[C@H](CO)[C@@H](O[C@@H]2O[C@H](CO)[C@H](O)[C@H](O)[C@H]2O)[C@@H]1O
In words: purified protein, by the assay type. The note with it: pH 6.0; 37.0 °C.

Consider “GalNAc alpha 2,6-sialyltransferase P-B3 (enzyme)”, for which the Acceptor substrate specificity, pmol/h/µl enzyme fraction ([14C]NeuAc transfer) in data set [1] is 1.2 pmol/h/µL; in [2], 0.5 pmol/h/µL; in data set [3] it was less than 0.5 pmol/h; in [4], 35 pmol/h/µL; in the data set with Asialo-ovomucoid, 1 pmol/h/µL; with Ovomucoid, less than 0.5 pmol/h. Further, the Acceptor substrate specificity, pmol/h/µl enzyme fraction ([14C]NeuAc transfer) in data set [5] was 5.2 pmol/h/µL; in [6], 28 pmol/h/µL.

With “Rat liver Gal beta 1,4GlcNAc alpha 2,6-sialyltransferase (from UniProt P13721) (enzyme)”, the Relative Activity to Gal β 1,4GlcNAc (relative to Gal β 1,4GlcNAc) in data set [7] came to 1; in data set [9], 0.1; in data set [10], 0.97. Moreover, the Relative Activity to Gal β 1,4GlcNAc (% of the control) in data set [8], in [11] and in data set [12] was less than 2 throughout. Also, the Km with Asialo-orosomucoid amounted to 200 µM.

For the molecule “Renatured mouse Gal beta 1,4GlcNAc alpha 2,6-sialyltransferase (from UniProt Q64685) (enzyme)”, the Relative Activity to Gal β 1,4GlcNAc (relative to Gal β 1,4GlcNAc) in [7] turned out to be 2.1; in [9] it was 0.1; in data set [10], 1.5; in data set [12] it was 0.25. Moreover, the Relative Activity to Gal β 1,4GlcNAc (% of the control) in data set [8] and in [11] was less than 2 in each case. Besides, the Km with Asialo-orosomucoid was found to be 400 µM.

B1: mouse Gal β 1,4GlcNAc α 2,6-sialyltransferase, recombinant soluble form lacking the cytosolic and transmembrane domains (29th amino acid residue to C-terminal … (protein)
chain: GSDYEALTLQAKVFQMPKSQEKVAVGPAPQAVFSNSKQDPKEGVQILSYPRVTAKVKPQPSLQVWDKDSTYSKLNPRLLKIWRNYLNMNKYKVSYKGPGPGVKFSVEALRCHLRDHVNVSMIEATDFPFNTTEWEGYLPKENFRTKAGPWHKCAVVSSAGSLKNSQLGREIDNHDAVLRFNGAPTDNFQQDVGTKTTIRLVNSQLVTTEKRFLKDSLYTEGILILWDPSVYHADIPQWYQKPDYNFFETYKSYRRLHPSQPFYILKPQMPWELWDIIQEISPDLIQPNPPSSGMLGIIIMMTLCDQVDIYEFLPSKRKTDVCYYHQKFFDSACTMGAYHPLLFEKNMVKHLNEGTDEDIYLFGKATLSGFRNNRC
On to B1, for which the figures for the Michaelis constant (Km) in [13] and in [14] were 6500 µM and 80 µM, respectively.

B2: Rat liver Gal β 1,4GlcNAc α 2,6-sialyltransferase (obtained from Sigma) (Rattus norvegicus) (protein)
chain: MIHTNLKKKFSLFILVFLLFAVICVWKKGSDYEALTLQAKEFQMPKSQEKVAMGSASQVVFSNSKQDPKEDIPILSYHRVTAKVKPQPSFQVWDKDSTYSKLNPRLLKIWRNYLNMNKYKVSYKGPGPGVKFSVEALRCHLRDHVNVSMIEATDFPFNTTEWEGYLPKENFRTKVGPWQRCAVVSSAGSLKNSQLGREIDNHDAVLRFNGAPTDNFQQDVGSKTTIRLMNSQLVTTEKRFLKDSLYTEGILIVWDPSVYHADIPKWYQKPDYNFFETYKSYRRLNPSQPFYILKPQMPWELWDIIQEISADLIQPNPPSSGMLGIIIMMTLCDQVDIYEFLPSKRKTDVCYYHQKFFDSACTMGAYHPLLFEKNMVKHLNEGTDEDIYLFGKATLSGFRNIRC
For B2, the Km in [15] turned out to be 40 µM; in data set [16] it was 5000 µM.
